This note sets out measurements from patent US20150111821A1.

The target in this assay is FGF receptors. The assay is described as follows: cell-based or functional assay.

The substance “FGF1^ΔNT (10-140αα) (SEQ ID NO: 7), N-terminally truncated FGF1 (from UniProt P05230 25-155) (ligand; the values are: fold reduction in signaling)” displayed an FGFR signaling (phosphorylation of downstream ERK and AKT pathways, Western blot, HEK293 cells) of 100 fold.
